Laboratory results: FireProtDB (doi:10.1021/bi9901228)

B1: Lysozyme C, P61626 (parent)
chain: MKALIVLGLVLLSVTVQGKVFERCELARTLKRLGMDGYRGISLANWMCLAKWESGYNTRATNYNAGDRSTDYGIFQINSRYWCNDGKTPGAVNACHLSCSALLQDNIADAVACAKRVVRDPQGIRAWVAWRNRCQNRDVRQYVQGCGV

Variants of: B1
Details: Homo sapiens; pH 2.51; Thermal; DSC; glycine 0.05 M; reversible: yes; structure 1LZ1; whole UniProt chain shown

Variant	Tm	heat capacity change of unfolding	unfolding enthalpy (calorimetric)	unfolding enthalpy (van 't Hoff)
MKALIVLGLVLLSVTVQGKVFERCELARTLKRLGMDGYRGISLANWMCLAKWESGYNTRATNYNAGDRSTDYGIFQINARYWCNDGKTPGAVNACHLSCSALLQDNIADAVACAKRVVRDPQGIRAWVAWRNRCQNRDVRQYVQGCGV [S79A]	57 °C	1.1 kcal/mol/K	99 kcal/mol	103 kcal/mol
MKALIVLGLVLLSVTVQGKVFERCELARTLKRLGMDGYRGISLANWMCLAKWESGYNTRATNYNAGDRSTDYGIFQINSRYWCNDGKTPGAVNACHLSCAALLQDNIADAVACAKRVVRDPQGIRAWVAWRNRCQNRDVRQYVQGCGV [S100A]	62.5 °C	1.41 kcal/mol/K	111 kcal/mol	117 kcal/mol
MKALIVLGLVLLSVTVQGKVFERCELARTLKRLGMDGYRGISLANWMCLAKWESGYNTRATNYNAGDRATDYGIFQINSRYWCNDGKTPGAVNACHLSCSALLQDNIADAVACAKRVVRDPQGIRAWVAWRNRCQNRDVRQYVQGCGV [S69A]	61 °C	1.48 kcal/mol/K	106 kcal/mol	113 kcal/mol

Same assay, conditions: Homo sapiens; pH 2.7; Thermal; DSC; glycine 0.05 M; reversible: yes; structure 1LZ1; whole UniProt chain shown

Variant	Tm	change of melting temperature, mutant - wild type (higher = more stable)	heat capacity change of unfolding	unfolding enthalpy (calorimetric)
MKALIVLGLVLLSVTVQGKVFERCELARTLKRLGMDGYRGISLANWMCLAKWESGYNTRATNYNAGDRSTDYGIFQINARYWCNDGKTPGAVNACHLSCSALLQDNIADAVACAKRVVRDPQGIRAWVAWRNRCQNRDVRQYVQGCGV [S79A]	60.6 °C	-4.3 °C	1.27 kcal/mol/K	109 kcal/mol
MKALIVLGLVLLSVTVQGKVFERCELARTLKRLGMDGYRGISLANWMCLAKWESGYNTRATNYNAGDRSTDYGIFQINSRYWCNDGKTPGAVNACHLSCAALLQDNIADAVACAKRVVRDPQGIRAWVAWRNRCQNRDVRQYVQGCGV [S100A]	66 °C	1.1 °C	1.27 kcal/mol/K	114 kcal/mol
MKALIVLGLVLLSVTVQGKVFERCELARTLKRLGMDGYRGISLANWMCLAKWESGYNTRATNYNAGDRATDYGIFQINSRYWCNDGKTPGAVNACHLSCSALLQDNIADAVACAKRVVRDPQGIRAWVAWRNRCQNRDVRQYVQGCGV [S69A]	64.2 °C	-0.7 °C	1.43 kcal/mol/K	112 kcal/mol

Same assay, conditions: Homo sapiens; pH 2.84; Thermal; DSC; glycine 0.05 M; reversible: yes; structure 1LZ1; whole UniProt chain shown

Variant	Tm	heat capacity change of unfolding	unfolding enthalpy (calorimetric)	unfolding enthalpy (van 't Hoff)
MKALIVLGLVLLSVTVQGKVFERCELARTLKRLGMDGYRGISLANWMCLAKWESGYNTRATNYNAGDRSTDYGIFQINARYWCNDGKTPGAVNACHLSCSALLQDNIADAVACAKRVVRDPQGIRAWVAWRNRCQNRDVRQYVQGCGV [S79A]	63.6 °C	1.15 kcal/mol/K	107 kcal/mol	111 kcal/mol

Same assay, conditions: Homo sapiens; pH 3.1; Thermal; DSC; glycine 0.05 M; reversible: yes; structure 1LZ1; whole UniProt chain shown

Variant	Tm	heat capacity change of unfolding	unfolding enthalpy (calorimetric)	unfolding enthalpy (van 't Hoff)
MKALIVLGLVLLSVTVQGKVFERCELARTLKRLGMDGYRGISLANWMCLAKWESGYNTRATNYNAGDRSTDYGIFQINARYWCNDGKTPGAVNACHLSCSALLQDNIADAVACAKRVVRDPQGIRAWVAWRNRCQNRDVRQYVQGCGV [S79A]	68.3 °C	1.31 kcal/mol/K	113 kcal/mol	118 kcal/mol

Same assay, conditions: Homo sapiens; pH 2.85; Thermal; DSC; glycine 0.05 M; reversible: yes; structure 1LZ1; whole UniProt chain shown

Variant	Tm	heat capacity change of unfolding	unfolding enthalpy (calorimetric)	unfolding enthalpy (van 't Hoff)
MKALIVLGLVLLSVTVQGKVFERCELARTLKRLGMDGYRGISLANWMCLAKWESGYNTRATNYNAGDRSTDYGIFQINSRYWCNDGKTPGAVNACHLSCAALLQDNIADAVACAKRVVRDPQGIRAWVAWRNRCQNRDVRQYVQGCGV [S100A]	68.9 °C	1.2 kcal/mol/K	120 kcal/mol	128 kcal/mol

Same assay, conditions: Homo sapiens; pH 3.12; Thermal; DSC; glycine 0.05 M; reversible: yes; structure 1LZ1; whole UniProt chain shown

Variant	Tm	heat capacity change of unfolding	unfolding enthalpy (calorimetric)	unfolding enthalpy (van 't Hoff)
MKALIVLGLVLLSVTVQGKVFERCELARTLKRLGMDGYRGISLANWMCLAKWESGYNTRATNYNAGDRSTDYGIFQINSRYWCNDGKTPGAVNACHLSCAALLQDNIADAVACAKRVVRDPQGIRAWVAWRNRCQNRDVRQYVQGCGV [S100A]	73.5 °C	1.41 kcal/mol/K	125 kcal/mol	133 kcal/mol

Same assay, conditions: Homo sapiens; pH 2.69; Thermal; DSC; glycine 0.05 M; reversible: yes; structure 1LZ1; whole UniProt chain shown

Variant	Tm	heat capacity change of unfolding	unfolding enthalpy (calorimetric)	unfolding enthalpy (van 't Hoff)
MKALIVLGLVLLSVTVQGKVFERCELARTLKRLGMDGYRGISLANWMCLAKWESGYNTRATNYNAGDRATDYGIFQINSRYWCNDGKTPGAVNACHLSCSALLQDNIADAVACAKRVVRDPQGIRAWVAWRNRCQNRDVRQYVQGCGV [S69A]	64.2 °C	1.43 kcal/mol/K	111 kcal/mol	118 kcal/mol

Same assay, conditions: Homo sapiens; pH 2.86; Thermal; DSC; glycine 0.05 M; reversible: yes; structure 1LZ1; whole UniProt chain shown

Variant	Tm	heat capacity change of unfolding	unfolding enthalpy (calorimetric)	unfolding enthalpy (van 't Hoff)
MKALIVLGLVLLSVTVQGKVFERCELARTLKRLGMDGYRGISLANWMCLAKWESGYNTRATNYNAGDRATDYGIFQINSRYWCNDGKTPGAVNACHLSCSALLQDNIADAVACAKRVVRDPQGIRAWVAWRNRCQNRDVRQYVQGCGV [S69A]	66.7 °C	1.55 kcal/mol/K	115 kcal/mol	121 kcal/mol

Same assay, conditions: Homo sapiens; pH 3.11; Thermal; DSC; glycine 0.05 M; reversible: yes; structure 1LZ1; whole UniProt chain shown

Variant	Tm	heat capacity change of unfolding	unfolding enthalpy (calorimetric)	unfolding enthalpy (van 't Hoff)
MKALIVLGLVLLSVTVQGKVFERCELARTLKRLGMDGYRGISLANWMCLAKWESGYNTRATNYNAGDRATDYGIFQINSRYWCNDGKTPGAVNACHLSCSALLQDNIADAVACAKRVVRDPQGIRAWVAWRNRCQNRDVRQYVQGCGV [S69A]	70.8 °C	1.36 kcal/mol/K	120 kcal/mol	126 kcal/mol
